Reference: publication PMC6147784, “Molecular mechanism of the Escherichia coli AhpC in the function of a chaperone under heat-shock conditions” (Scientific Reports, 2018)

B1: Escherichia coli alkyl hydroperoxide reductase subunit C (EcAhpC), His-tagged recombinant wild type (protein)
chain: MSLINTKIKPFKNQAFKNGEFIEITEKDTEGRWSVFFFYPADFTFVCPTELGDVADHYEELQKLGVDVYAVSTDTHFTHKAWHSSSETIAKIKYAMIGDPTGALTRNFDNMREDEGLADRATFVVDPQGIIQAIEVTAEGIGRDASDLLRKIKAAQYVASHPGEVCPAKWKEGEATLAPSLDLVGKI
B2: Escherichia coli alkyl hydroperoxide reductase subunit C (EcAhpC), His-tagged recombinant wild type (enzyme, UniProt P0AE08 1-187, looked up)
chain: B1 chain
modifications: disulfide bonded (referred as oxidized form) as purified; reduced with DTT (kept with TCEP or DTT) in the assays marked as reduced
notes: Alkyl hydroperoxide reductase subunit C (AhpC) of Escherichia coli, the entire enzyme; the C-terminal extension is printed as aa 173-187; The same construct was used as the oxidized (intermolecular disulphide) and as the reduced form; the assay's format tells which; also called WT EcAhpC; oxidized EcAhpC; source: E. coli, purified (Ni2+-NTA, gel filtration on Superdex 75)

Experiments:
[1] = target: P0AE08; assay: SEC; 10 µM reduced EcAhpC (pre-reduced with 20 mM DTT, desalted) incubated at 53 °C for 60 min in 50 mM phosphate pH 7.0 with 1 mM TCEP, centrifuged; Superdex 200 10/300 GL; to HMW oligomers
[2] = target: P0AE08; assay: SEC; 10 µM oxidized EcAhpC incubated at 48 °C for 60 min in 50 mM phosphate pH 7.0, cooled to room temperature, centrifuged; Superdex 200 10/300 GL in 50 mM Tris pH 7; dimers to HMW oligomers
[3] = target: P0AE08; assay: SEC; 10 µM oxidized EcAhpC incubated at 50 °C for 60 min in 50 mM phosphate pH 7.0, cooled to room temperature, centrifuged; Superdex 200 10/300 GL in 50 mM Tris pH 7; dimers to HMW oligomers
[4] = target: P0AE08; assay: SEC; 10 µM protein (oxidized form) incubated at 53 °C for 60 min in 50 mM phosphate pH 7.0, cooled to room temperature, centrifuged; Superdex 200 10/300 GL in 50 mM Tris pH 7; dimers to HMW oligomers
[5] = target: the molecule itself; assay: dynamic light scattering; 1 mg/ml (50 µM) reduced EcAhpC (5 mM DTT) in 50 mM phosphate pH 7.0, equilibrated 10 min at 25 °C
[6] = target: the molecule itself; assay: SEC; 10 µM protein (oxidized form) incubated at 25 °C for 60 min in 50 mM phosphate pH 7.0, centrifuged; Superdex 200 10/300 GL in 50 mM Tris pH 7 at room temperature; mass estimated from standards

Protein	peak ratio (8 ml HMW peak to 16.5 ml peak) [1]	peak ratio (8.0 ml HMW peak to 15.5 ml dimer peak) [2]	peak ratio (8.0 ml HMW peak to 15.5 ml dimer peak) [3]	peak ratio (8.0 ml HMW peak to 15.5 ml dimer peak) [4]	stoichiometry N [5]	stoichiometry N [6]
B1	about 10:1	0.02:1	0.2:1	0.9:1	–	–
B2	–	–	–	–	10	2
